From the DeepSol protein solubility set

Assay: soluble on expression in E. coli; label from the status in PepcDB or PDB records

Soluble on expression in E. coli, soluble:
MSLTTSAHKHPYKIVASDLDGTLLAPNHQLSEFSKQTLKQLHDKGFTFIFATGRHHIDVAGIREIAGIPAYMITSNGARVHDQNDQLMYSKNVPQDLVQAIIDVVKHDKQLFVHLYRNDEWMLNKEDEILRDFHEDSGFTYRVFDVNNAPTDGIAKIFFTQEDQDHEHLVQYETLLNQRFGDKLNVAFSTPWCLEVMCAGVSKGDALQAVAESLHLGLENCIAFGDGMNDVEMLSMAGKGLVMGTAHEKVFNALPDNEVIGSNADDAVAHYLHQHLFEGGSHHHHHH
SNKLMELANLQPKRPKTIKQRHVRKKRKIKDMLNTPLCPSHSSLHPVLLPSDVFDQPQPVGNKRIEFHISTDMPAAFKKDLEKEQNCEEKNHDLPATEVDASNIGFGKIFPKPNLDITEEIKEDSDEMPSECISRRELEKGRISREEMETLSVFRSYEPGEPNCRIYVKNLAKHVQEKDLKYIFGRYVDFSSETQRIMFDIRLMKEGRMKGQAFIGLPNEKAAAKALKEANGYVLFGKPMVVQFARSARPKQDPKEGKRKC
SLKPIMYNEKRGVSVMDIKLQQTQILKPQLTQELKQAITLLGYNSAELAGYIDELSLENPLIERKETDTPPLSYHKTNKNRMKEQDVSQQIRLTRKTLQDSLKQQAIDMKLSDAEKKIFNYLIYSLDSNGYLKEDIQAAADHVSASLEETEAVLAKLQSLEPAGIGARSLQECILLQLRRLPERNEQAEWIAGAYFELFARKNWKALTLQTGIPLKDIQDIFDMISALDPRPGLRYAHEEPGFYVEPDIFNTVKNGIIQARLNSRSFPDIQLHAHYRPMLSAAGCRDVQQVPF
MKWDEIGKNIAKEIEKEILPYFGRKDKSYVVGTSPSGDETEIFDKISEDIALKYLKSLNVNIVSEELGVIDNSSEWTVVIDPIDGSFNFINGIPFFAFCFGVFKNNEPYYGLTYEFLTKSFYEAYKGKGAYLNGRKIKVKDFNPNNIVISYYPSKKIDLEKLRNKVKRVRIFGAFGLEMCYVAKGTLDAVFDVRPKVRAVDIASSYIICKEAGALITDENGDELKFDLNATDRLNIIVANSKEMLDIILDLL
MSLVIYMIGGSPCSGKSTIASLLARQYQLLHIKLDDLVDEMMSQASADSQPICLLRQDRNPEQIWMRNPKEMADEEWRFYEEIFPYVKSYLIKKDRPLLVEGAGLLPHLVKELEWPASSYLCLTPTADFQKKHYRQREWVSYVLEGTTNPEQAFENWMQRDILFAQMVRKEAMRLGYSSLMTDGSQSEKQTAEEIARLLKLYNINEIDIKGENEGHHHHHH
MSLSDDTSVVQDYIKSRDALVVLEQKMPLRDAFGGRYADIFSRFPGVIGRDGFEYFYRYFKNHVAVDVGTATAVTTLRVQAYTSKDAYLINKYLLEMAEKRVNELNDRSRQDSLRYALAEVAGAEAKVKAASTALSKFRSKASLFDPDRQSNIQLELVAKLRGELIAKQAQLSQLRMLSPQNPQIPSLAASIGALEASIASEKGGVAGEKNSLSDRSVEYQRLALEQSFGEKLLASALTSLEQARADAERKQIYLERVAEPNEPDVAMEPKREGHHHHHH

Soluble on expression in E. coli, not soluble:
MKSKLKLHGFNNLTKTLSFNIYDICYAETPEDLQAYVQYIDEEYDAERLTQILTDVVDIIGANILNIARQDYDPQGASVTILISEQPVTPTDSQIEESPGPLPDTILAHLDKSHITVHTYPEIHPVDGIATFRVDIDVSTCGVISPLKALNYLIHQFDSDIVTVDYRVRGFTRDIEGRKHFIDHEINSIQNYLSDDTREAYQMTDVNVYQENLFHTKMLLKDFELENYLFGDATRTLSAEQREQVTERLKHEMLEIFYARNMPR
MGSDKIHHHHHHMSLKTSDVKFKDRIQTQIHDPIMRKAVANAQERIGANRQKMVDELGHWEAWRDHAAQIREHVLNNLDAYLYQLSEKVTANGGQVYFAKTKEDATRYILQVAQANHAKKVVKAKSMVTEEIGMNHVLQQAGIEVIETDLGEYILQLDQDPPSHVVVPAIHKDRYQIRKVLHEKLGYDGPETPEAMTLFIRKKIREDFLSAEVGVTGCNFAVAETGSVCLVTNEGNARMCTTLPKTHIAVMGMERIAPTFEEVDVLITMLARSAVGARLTGYNTWLTGPREAGHVDGPQEFHLVIVDNGRSQILGSAFRDILRCIRCGACINTCPAYRHIGGHGYGSIYPGPIGAVISPLLGGYQDFKELPYACSLCTACDTVCPVHIPLSSLILKHRRVMAESGITPKAEQRFTKLFSYVNSHPMLWKVGMIAGAHAAGWFIKNGKTRIEMGAIGEWTEARDLPDADGESFRSWFKKHQARGKK
MSLNQGEQLPGNYRVEIYLNGEKVDVGEFPFHRPESPEEKELVPCLTVDDLIHYGIKIDKSSSDTDNKKNQCFKWNSIEGLKVNYDFDSQRVQITVPQLYLQDKKSSLAPVSLWNEGVAAFRMVYQTNIDISKQNDNQSTTRNSRYGRFTPGFNLGAWRFRSSVTWSKELGQSERWQRGYMWFERGINAIKSRLTLGESYTSSEVFDSIPFRGGMLATDDAMTPPEDSYYTPVVHGIAQSEAQVIIKQNGQIIFTRSVPPGPFALDNLPTLAVGGELDVTVRESNGEEQYFSVPFQTPAIALHEGYFKYSVMGGNIKKKEGHHHHHH
MDTEMLIDKYQLNDSEAAVLRFMDKNRDCLKSLGIREVAKASYVSTTAIINMAKKIGYSGYSELVFAYGNKHSSISFPENFSNEEKDEFIRLLSRYREKRIMVLGSGFSQNIANHFSEMLNLYGFRATANSHLEFLRENVEKDVLIFIVSNSGDTLRLAELVKLAKNHHIDLIAFVGEKKSKIGQLATLTISTETYNPQVVSEYQPNLFFGTALNQFELLLSEALKSIFI
MGSDKIHHHHHHMKKTPKLSVQLWSVKDAINQDFNGTLKTLSNMGFDGVEFAGELGSYANDAKALKLFLDSIDLKASGAHVSFEQLDQDNFQKTVDFYHQLQVDTLIIGLDDRSWHPQGIEEVVKLLNQLDTKLDPYNIKTGFHNHEHEFDNFKGTTYWDYLAMNTKDSVVLQQDVGWTTYAGKDAVEYVYKYPNRSFTTHYRVCIPEGVKGKQPIIGRDTIDWLRLLKANINVGGTKWIVVEQDVYPNGMSSLAAVALSKNGLEQYIDKL
MAHHHHHHMKLLSSVGRLSVVAGGLSLIPYTFIYDVDGGERCVMFNRFGGVSENTYGEGSHFYIPWFQTPYIYDIKMKPKVINTTTGTRDLQIVTLSLRLLFRPHTKQLPYLHSTLGPDYDERVLPSIGNEVLKAVVAKYNAESLLTQRDKISKEIRESITARAKHFNILLDDVAITHLSYGKEFAKAIEDKQVAQQESERVKFIVAKTEQEKIAAVIKAQGEAEAAKLISSAVKEYGNSLLEIRKLEAAKEIAENLSKSKNVTYFPASFNILLNPKNL
MAYNKEEKIKSLNRMQYEVTQNNGTEPPFQNEYWDHKEEGLYVDIVSGKPLFTSKDKFDSQCGWPSFTKPIEEEVEEKLDTSHGMIRTEVRSRTADSHLGHVFNDGPGPNGLRYCINSAALRFVPKHKLKEEGYESYLHLFNK
MAHHHHHHMSIYCRLASPPVFLRALHTVSVSRDGWATVVFTDSHVVLHVEGTDENMTATCTLPKNLFAEYAVVETRFALHIPTLIDALLMLG
MSLDFDADTPVVGMVHLSPLPGAPGYDDGNRPAIRDAALRDASRLEAGGVDALLVENFGDAPFYADDVPKHVVASMAALVRDITREAEVPVGVNVLRNDAEAAVSIAAAADADFVRVNVHTGARLTDQGVVGGQAAETVRLRDRLDAAEVSMLADIDVKHSAALAERPLSEGVAELLERGHADGVIASGAGTGHATDHDHLQAVVDARDRLDADAPVFVGSGVTQETVGATLDLADGAIVGTALKQNGETTAPVDGDRVRALVDAAR
MPFKPLVTAGIEGLLNTFLYRSPALKSARTRLQGKVLCVKLKGFSMPLVLVFSERQVDVLGAWEGEADCTVITQASVLPKLRDRQQLATLIRSGELEVQGDIQVVQNFVALADLAEFDPAELLAPYTGDIAAESIGKVVRGGAKFLRHGFQRQQRYAAEAITEEWRMAPGPLEVAWFAEETAAVERAVDSLTTRLEKLEAK
